These results are taken from patent US9187525B2, “Methods of treating ophthalmic diseases using NPR-B agonists” (Shire Orphan Therapies GmbH, dated 2015).

Numbered stars: 1 amine (or outer) side, 2 acyl side, 3 side chain; on linkers, the order of the positions; unused ones are H or OH. Square brackets hold non-standard residues; d marks the D form. Primed or numbered codes have the meaning given here. Ends that are not written are not given here. * marks the point of attachment. Eal = rac-imidazolidine-2-carboxylic acid, O=C(C1N([*:1])CCN1[*:3])[*:2]; 6182 = 5-Butyl-2H-pyrazole-3-carboxylic acid, CCCCc1cc(C(=O)*)[nH]n1; Pro(trans-4-NH2) = O=C([C@@H]1C[C@@H](N[*:3])CN1[*:1])[*:2]; Pro(trans-4-guanidino) = N=C(N)N[C@H]1CN[C@H](C(=O)O)C1; Sni = (S)-nipecotic acid, O=C([C@H]1CCCN([*:1])C1)[*:2]; Azetidine3carboxylic = O=C(C1CN([*:1])C1)[*:2]; Hyp = O=C(O)[C@@H]1C[C@@H](O)CN1; NMeL = CN[C@@H](CC(C)C)C(=O)O; dDap(Me2)′ = not defined here; AR‑201‑48 = not defined here; AR‑201‑49 = not defined here; AR‑201‑54 = not defined here; Tle = CC(C)(C)[C@H](N)C(=O)O; dNle = CCCC[C@@H](N)C(=O)O; dOrn = NCCC[C@@H](N)C(=O)O; SH‑158 = not defined here; Octanoyl = CCCCCCCC(=O)*; Ac5c = NC1(C(=O)O)CCCC1; dAze = O=C(O)[C@H]1CCN1; Hexanoyl = CCCCCC(=O)*; Occ = octanoic acid; βAla = NCCC(=O)O; Sar = CNCC(=O)O

This assay concerns the target T1, natriuretic peptide receptor-B (human).
T1 chain: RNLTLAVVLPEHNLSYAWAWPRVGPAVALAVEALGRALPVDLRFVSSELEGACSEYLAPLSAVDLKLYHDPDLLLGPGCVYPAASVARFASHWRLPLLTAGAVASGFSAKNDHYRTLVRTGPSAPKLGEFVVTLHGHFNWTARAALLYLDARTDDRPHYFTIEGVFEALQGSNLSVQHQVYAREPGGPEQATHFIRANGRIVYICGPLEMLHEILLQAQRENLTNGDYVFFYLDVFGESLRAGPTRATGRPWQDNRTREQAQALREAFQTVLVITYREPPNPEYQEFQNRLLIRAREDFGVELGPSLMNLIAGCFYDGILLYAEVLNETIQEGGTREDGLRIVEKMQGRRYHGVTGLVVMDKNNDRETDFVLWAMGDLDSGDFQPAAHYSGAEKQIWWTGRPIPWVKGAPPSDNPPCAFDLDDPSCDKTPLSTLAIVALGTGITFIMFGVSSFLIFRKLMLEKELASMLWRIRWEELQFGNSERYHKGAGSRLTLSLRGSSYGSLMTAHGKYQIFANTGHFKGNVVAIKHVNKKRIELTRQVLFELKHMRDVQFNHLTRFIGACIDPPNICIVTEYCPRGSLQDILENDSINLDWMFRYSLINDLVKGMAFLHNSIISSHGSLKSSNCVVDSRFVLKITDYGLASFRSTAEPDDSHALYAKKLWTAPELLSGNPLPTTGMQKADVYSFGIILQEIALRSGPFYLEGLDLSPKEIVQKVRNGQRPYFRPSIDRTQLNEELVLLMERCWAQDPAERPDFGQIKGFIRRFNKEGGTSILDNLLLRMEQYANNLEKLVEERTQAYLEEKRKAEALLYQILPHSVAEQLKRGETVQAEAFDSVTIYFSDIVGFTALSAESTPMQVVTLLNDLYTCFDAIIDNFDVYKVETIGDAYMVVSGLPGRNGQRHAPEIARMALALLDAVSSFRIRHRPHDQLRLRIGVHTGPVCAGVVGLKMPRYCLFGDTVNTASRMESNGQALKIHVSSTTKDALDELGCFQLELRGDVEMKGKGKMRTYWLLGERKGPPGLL
Nature of the assay: cell-based or functional assay.

Take [Occ][Sni]F[dL]L[Pro(trans-4-NH2)](Gly)[NMeL]DRI-NH2 [JAL-1322]: the “EC50 group, cGMP in GTM-3 cells” value was at most 1 µM.

B1: JAL-1324 (peptide)
peptide: XFRLXXDRI
HELM: PEPTIDE1{[CCCCCCCCS(=O)(=O)CCC(=O)[*:2]].F.[dR].L.[Hyp].[meL].D.R.I.[am]}$$$$V2.0; N-terminus assumed
SMILES: CCCCCCCCS(=O)(=O)CCC(=O)N[C@@H](Cc1ccccc1)C(=O)N[C@H](CCCNC(=N)N)C(=O)N[C@@H](CC(C)C)C(=O)N1C[C@H](O)C[C@H]1C(=O)N(C)[C@@H](CC(C)C)C(=O)N[C@@H](CC(=O)O)C(=O)N[C@@H](CCCNC(=N)N)C(=O)N[C@H](C(N)=O)[C@@H](C)CC
With B1, the “EC50 group, cGMP in GTM-3 cells” value was at most 5 µM.

In the case of Octanoyl-[Sni]F[dL]L[Hyp][NMeL]DRI-NH2 [JAL-1302], the “EC50 group, cGMP in GTM-3 cells” value is at most 1 µM.

As for Octanoyl-[Azetidine3carboxylic]F[dR]L[Hyp][NMeL]DRI-NH2 [JAL-1275], the “EC50 group, cGMP in GTM-3 cells” value was at most 5 µM.

B2: JAL-1284 (peptide)
peptide: Octanoyl-[dA]F[dR]L[Hyp][SH‑158]DRI-NH2
modifications: reading uncertain; also: printed as Occ-ala-Phe-arg-Leu-Hyp-(SH-158)-Asp-Arg-Ile-NH2
On to B2, for which the “EC50 group, cGMP in GTM-3 cells” value is at most 1 µM.

Take Octanoyl-[dA]F[dR]L[Hyp][NMeL]DR[Tle]-NH2 [JAL-1305]: the “EC50 group, cGMP in GTM-3 cells” value was at most 1 µM.

Octanoyl-[Sni]F[dL]L[Pro(trans-4-NH2)][NMeL]DRI-NH2 [JAL-1295]: the “EC50 group, cGMP in GTM-3 cells” value was at most 1 µM.

In the case of Octanoyl-[dA]FGL[Eal][NMeL]DRI-NH2 [JAL-1282], the “EC50 group, cGMP in GTM-3 cells” value is at most 15 µM.

For the molecule Hexanoyl-S[dA]FGLKLDRI-NH2 [JAL-0633], the “EC50 group, cGMP in GTM-3 cells” value was at most 15 µM.

On to Octanoyl-[dA]F[dL]L[Eal][NMeL]DRI-NH2 [JAL-1281_01], for which the “EC50 group, cGMP in GTM-3 cells” value is at most 5 µM.

Regarding Octanoyl-[Sni]F[dNle]L[Pro(trans-4-NH2)][NMeL]DRI-NH2 [JAL-1319], the “EC50 group, cGMP in GTM-3 cells” value was at most 5 µM.

On to XAFRLXXDRI (Occ-ala-Phe-arg-Leu-Hyp-Dap(Me2)-Asp-Arg-Ile-NH2) [JAL-1314], for which the “EC50 group, cGMP in GTM-3 cells” value was at most 5 µM.

On to [AR‑201‑48][dR]L[Hyp][NMeL]DRI-NH2 (reading uncertain; also: printed as (AR-201-48)-arg-Leu-Hyp-Nml-Asp-Arg-Ile-) [JAL-1291], for which the “EC50 group, cGMP in GTM-3 cells” value is at most 15 µM.

On to Octanoyl-[dA]F[dL]L[Pro(trans-4-NH2)][NMeL]DRI-NH2 [JAL-1296], for which the “EC50 group, cGMP in GTM-3 cells” value is at most 1 µM.

With XAFRXXXDRI (Occ-ala-Phe-arg-Dap(Me2)-Hyp-Nml-Asp-Arg-Ile-NH2) [JAL-1315], the “EC50 group, cGMP in GTM-3 cells” value is at most 15 µM.

On to [Occ][Sni]F[dL]L[Pro(trans-4-NH2)](Ac)[NMeL]DRI-NH2 [JAL-1321], for which the “EC50 group, cGMP in GTM-3 cells” value is at most 5 µM.

Turning to [Occ][Sni]F[dDap(Me2)′]L[Pro(trans-4-NH2)][NMeL]DRI-NH2 [JAL-1325], the “EC50 group, cGMP in GTM-3 cells” value was at most 1 µM.

Consider Octanoyl-[Sni]F[dR]L[Pro(trans-4-NH2)][NMeL]DRI-NH2 [JAL-1317], for which the “EC50 group, cGMP in GTM-3 cells” value was at most 1 µM.

For XAFXLXXDRI (Occ-ala-Phe-orn(Me2)-Leu-Hyp-Nml-Asp-Arg-Ile-NH2) [JAL-1288], the “EC50 group, cGMP in GTM-3 cells” value was at most 1 µM.

Turning to Octanoyl-[Sni]F[dOrn]L[Pro(trans-4-NH2)][NMeL]DRI-NH2 [JAL-1318], the “EC50 group, cGMP in GTM-3 cells” value was at most 1 µM.

For the molecule Octanoyl-[Sar]F[dR]L[Hyp][NMeL]DRI-NH2 [JAL-1273], the “EC50 group, cGMP in GTM-3 cells” value is at most 5 µM.

B3: JAL-1283 (peptide)
peptide: Octanoyl-[dA]F[dL]L[Hyp][SH‑158]DRI-NH2
modifications: reading uncertain; also: printed as Occ-ala-Phe-leu-Leu-Hyp-(SH-158)-Asp-Arg-Ile-NH2
In the case of B3, the “EC50 group, cGMP in GTM-3 cells” value was at most 1 µM.

Take [Occ][Sni]F[dL]L[Pro(trans-4-NH2)](βAla)[NMeL]DRI-NH2 [JAL-1323]: the “EC50 group, cGMP in GTM-3 cells” value was at most 1 µM.

6182-[dA]F[dR]L[Hyp][NMeL]DRI-NH2 [JAL-1298]: the “EC50 group, cGMP in GTM-3 cells” value is at most 5 µM.

Hexanoyl-[dA][dA]FGLKLDRI-NH2 [JAL-0635]: the “EC50 group, cGMP in GTM-3 cells” value is at most 15 µM.

B4: JAL-1316 (peptide)
peptide: [AR‑201‑54]F[dR]L[Hyp][NMeL]DRI-NH2
modifications: reading uncertain; also: printed as (AR-201-54)-Phe-arg-Leu-Hyp-Nml-Asp-Arg-Ile-NH2
For the molecule B4, the “EC50 group, cGMP in GTM-3 cells” value is at most 5 µM.

For the molecule XXFXLXXDRI (Occ-Sni-Phe-dap(Me2)-Leu-Hyp-Nml-Asp-Arg-Ile-NH2) [JAL-1287], the “EC50 group, cGMP in GTM-3 cells” value is at most 1 µM.

For XXFXLXXDRI (Occ-Sni-Phe-orn(Me2)-Leu-Hyp-Nml-Asp-Arg-Ile-NH2) [JAL-1289], the “EC50 group, cGMP in GTM-3 cells” value was at most 1 µM.

In the case of Octanoyl-[dA]F[dR]L[Hyp][NMeL]DR[Ac5c]-NH2 [JAL-1306], the “EC50 group, cGMP in GTM-3 cells” value is at most 5 µM.

As for [AR‑201‑48][dL]L[Hyp][NMeL]DRI-NH2 (reading uncertain; also: printed as (AR-201-48)-leu-Leu-Hyp-Nml-Asp-Arg-Ile-) [JAL-1293], the “EC50 group, cGMP in GTM-3 cells” value was at most 15 µM.

Take [Occ][Sni]FGL[Pro(trans-4-NH2)][NMeL]DRI-NH2 [JAL-1320]: the “EC50 group, cGMP in GTM-3 cells” value is at most 1 µM.

Turning to Hexanoyl-P[dA]FGLKLDRI-NH2 [JAL-0634], the “EC50 group, cGMP in GTM-3 cells” value was at most 15 µM.

Octanoyl-[Sni]F[dR]L[Hyp][NMeL]DRI-NH2 [JAL-1297]: the “EC50 group, cGMP in GTM-3 cells” value was at most 1 µM.

Take Octanoyl-[dAze]F[dR]L[Hyp][NMeL]DRI-NH2 [JAL-1274]: the “EC50 group, cGMP in GTM-3 cells” value was at most 5 µM.

As for Octanoyl-[dA]F[dL]L[Pro(trans-4-guanidino)]LDRI-NH2 [JAL-1272], the “EC50 group, cGMP in GTM-3 cells” value was at most 5 µM.

B5: JAL-1292 (peptide)
peptide: [AR‑201‑49]F[dR]L[Hyp][NMeL]DRI-NH2
modifications: reading uncertain; also: printed as (AR-201-49)-Phe-arg-Leu-Hyp-Nml-Asp-Arg-Ile-NH2
For the molecule B5, the “EC50 group, cGMP in GTM-3 cells” value is at most 5 µM.

B6: JAL-1294 (peptide)
peptide: [AR‑201‑49]F[dL]L[Hyp][NMeL]DRI-NH2
modifications: reading uncertain; also: printed as (AR-201-49)-Phe-leu-Leu-Hyp-Nml-Asp-Arg-Ile-NH2
For B6, the “EC50 group, cGMP in GTM-3 cells” value is at most 1 µM.
